Experimental data taken from publication PMC9838217, “Structure of SALL4 zinc finger domain reveals link between AT-rich DNA binding and Okihiro syndrome”.
Numbering of substitutions follows the chain as printed.

How the values were obtained:
Conditions in all cases: protein: recombinant; tags: His6-GST removed with 3C protease; label: DY681
SALL4 ZFC4 R900W = target: T1, SALL4 ZFC4 R900W (Mus musculus, UniProt Q8BX22 870-940, R900W); assay: EMSA; apparent; poly(dI-dC); EMSA: 68.1 nM DY681-dsDNA, 20 mM HEPES pH 7.5, 150 mM K acetate, 5 mM Mg acetate, 10 ng/ul poly(dI-dC), 30 min on ice; 4% native PAGE, 0.5x TBE, 4 C
T1 sequence: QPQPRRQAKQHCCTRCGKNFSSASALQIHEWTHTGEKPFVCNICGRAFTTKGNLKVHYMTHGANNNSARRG

SALL4 ZFC4 I897S = target: T2, SALL4 ZFC4 I897S (Mus musculus, UniProt Q8BX22 870-940, I897S); assay: as above
T2 sequence: T1 sequence with I28S, W31R

SALL4 ZFC4 V925S = target: T3, SALL4 ZFC4 V925S (Mus musculus, UniProt Q8BX22 870-940, V925S); assay: as above
T3 sequence: T1 sequence with W31R, V56S

SALL4 ZFC4 I897S+V925S = target: T4, SALL4 ZFC4 I897S+V925S (Mus musculus, UniProt Q8BX22 870-940, I897S;V925S); assay: EMSA; apparent; text gives 5.0; poly(dI-dC); EMSA: 68.1 nM DY681-dsDNA, 20 mM HEPES pH 7.5, 150 mM K acetate, 5 mM Mg acetate, 10 ng/ul poly(dI-dC), 30 min on ice; 4% native PAGE, 0.5x TBE, 4 C
T4 sequence: T1 sequence with I28S, W31R, V56S

B1: EMSA AT-rich probe (dsDNA)
DNA 1: AAAAAATATTAAAAA
DNA 2: TTTTTAATATTTTTT
Kd (SALL4 ZFC4 R900W): 23 µM | Kd (SALL4 ZFC4 I897S): 4.8 µM | Kd (SALL4 ZFC4 V925S): 0.91 µM | Kd (SALL4 ZFC4 I897S+V925S): 5.08 µM
